Test results published in patent publication US5141947A, “Fibrinolysis-enhancing agents” (Mitsubishi Kasei Corporation, priority 1984, dated 1992).

System: thrombus in carotid artery of rabbit
Assay: in vivo thrombolysis by t-PA, rabbit carotid artery thrombus (Example 4)
Conditions: for Thrombus Protein: 2 h infusion, femoral vein, n=4, saline control 1.97 ± 0.38
Protocol: The carotid artery of a rabbit was exposed from the surrounding tissue under anesthesia by pentobarbital. The exposed artery was surrounded with absorbent cotton soaked with glacial acetic acid and allowed to stay for 3 hours to form thrombus by the damage done to the endorthelium. The thus formed thrombus was tested for dissolution. Immediately after removing out the cotton, physiological saline in which the substance to be tested had been dissolved was injected through the femoral vein. The infusion was continued over 2 hours. After the infusion, the arterial segment wherein the thrombus had been formed was cut out and the thrombus mass was removed out under a microscope. The thrombus was dissolved in alkali and the protein was quantitatively measured by phenol method.

B1: t-PA: single or double chain tissue plasminogen activator (t-PA) (protein, UniProt P00750 36-562, looked up)
Tissue-type plasminogen …: SYQVICRDEKTQMIYQQHQSWLRPVLRSNRVEYCWCNSGRAQCHSVPVKSCSEPRCFNGGTCQQALYFSDFVCQCPEGFAGKCCEIDTRATCYEDQGISYRGTWSTAESGAECTNWNSSALAQKPYSGRRPDAIRLGLGNHNYCRNPDRDSKPWCYVFKAGKYSSEFCSTPACSEGNSDCYFGNGSAYRGTHSLTESGASCLPWNSMILIGKVYTAQNPSAQALGLGKHNYCRNPDGDAKPWCHVLKNRRLTWEYCDVPSCSTCGLRQYSQPQFRIKGGLFADIASHPWQAAIFAKHRRSPGERFLCGGILISSCWILSAAHCFQERFPPHHLTVILGRTYRVVPGEEEQKFEVEKYIVHKEFDDDTYDNDIALLQLKSDSSRCAQESSVVRTVCLPPADLQLPDWTECELSGYGKHEALSPFYSERLKEAHVRLYPSSRCTSQHLLNRTVTDNMLCAGDTRSGGPQANLHDACQGDSGGPLVCLNDGRMTLVGIISWGLGCGQKDVPGVYTKVTNYLDWIRDNMRP
thrombolytic effect (t-PA 0.48 mg/kg alone): no thrombolytic effect | Thrombus Protein (t-PA 0.48 mg/kg alone): 2.45 ± 0.81 mg | Thrombus Protein (t-PA 0.96 mg/kg alone): 0.40 ± 0.16 mg
